What is called IC50 is the concentration needed to halve the response being measured. As a reminder, the EC50 is the concentration at which the effect is half-maximal. Read a high EC50 as a need for much substance. As a reminder, the Kd is the concentration at which binding is half-saturated. Read a high Kd as a looser complex. One may read the koff as the rate constant with which the complex falls apart. Lower therefore signals a long-lived complex. Usually kon stands for the second-order rate constant of association.

T1: His6-tagged cyIL-33 (Ser112-Ile270), QB10976 (cynomolgus monkey)
T1 construct: Entry includes N-terminal Avitag, FLAG and His6 tags; isoform X1, NCBI XP_005581824; also called cyIL-33 antigen
T1 chain: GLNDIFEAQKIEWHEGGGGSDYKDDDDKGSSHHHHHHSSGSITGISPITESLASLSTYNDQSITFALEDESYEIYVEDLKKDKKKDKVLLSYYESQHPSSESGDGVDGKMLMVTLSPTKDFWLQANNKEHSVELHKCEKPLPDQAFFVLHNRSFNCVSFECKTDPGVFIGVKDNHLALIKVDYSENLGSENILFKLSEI

T2: hST2-Fc protein from R&D Systems (cat no. 523-ST-100) (human, UniProt Q01638 19-328, limits assumed)
T2 construct: Bought reagent; also called human ST2
T2 sequence (looked up): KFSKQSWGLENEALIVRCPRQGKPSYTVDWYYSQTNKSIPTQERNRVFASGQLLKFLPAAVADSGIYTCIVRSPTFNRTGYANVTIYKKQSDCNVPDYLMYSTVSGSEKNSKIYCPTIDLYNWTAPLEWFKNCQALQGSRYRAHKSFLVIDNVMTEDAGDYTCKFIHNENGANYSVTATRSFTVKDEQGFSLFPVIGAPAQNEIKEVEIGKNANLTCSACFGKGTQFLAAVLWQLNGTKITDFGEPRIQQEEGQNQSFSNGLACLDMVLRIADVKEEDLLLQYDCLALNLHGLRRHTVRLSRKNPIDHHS

B1: chimeric anti-hIL-33 antibody QB10998 (antibody, human IgG1, kappa, V domains shown)
VH: EVMLVESGGGLVKPGGSLKLSCAASGFTFYSSAMSWVRQTPEKRLEWVATISSGGSNTYYPDSVKGRFTISRDNAKNTLYLQMSSLGSEDTAMYYCASAYYGRRYDAMDYWGQGTSVTVSS
VL: DIVMTQAAPSIPVTPGESVSISCKSSKSLLHSNGNTYLYWFLQRPGQSPQLLIYRMSNLASGVPDRFSGSGSGTAFTLRISRVEAEDVGVYYCMQHLENPYTFGGGTKLELNR
notes: Text says murine VH on human IgG4 constant regions; the printed HC entry looks like IgG1; also called chimeric antibody
B2: Avitag_c-MYC_His6-tagged hIL-33 (Ser112-Thr270), QB10975 (ligand)
chain: GLNDIFEAQKIEWHEGGGGSEQKLISEEDLGSSHHHHHHSSGSITGISPITEYLASLSTYNDQSITFALEDESYEIYVEDLKKDEKKDKVLLSYYESQHPSNESGDGVDGKMLMVTLSPTKDFWLHANNKEHSVELHKCEKPLPDQAFFVLHNMHSNCVSFECKTDPGVFIGVKDNHLALIKVDSSENLCTENILFKLSET
notes: Entry includes N-terminal Avitag, c-MYC and His6 tags; reduced with DTT to the active form; also called active hIL-33; reduced hIL-33
B3: anti-hIL-33 IgG1 antibody QB11421 (antibody)
heavy: EVQLLESGGGLVQPGGSLRLSCAASGFTFYSSAMSWFRQTQGKGLEWVSTISSGGSNTYYPDSVKGRFTISRDNSKNTLYLQMNSLGAEDTAVYYCASAYYGRRYDAMDYWGQGTLVTVSSASTKGPSVFPLAPSSKSTSGGTAALGCLVKDYFPEPVTVSWNSGALTSGVHTFPAVLQSSGLYSLSSVVTVPSSSLGTQTYICNVNHKPSNTKVDKKVEPKSCDKTHTCPPCPAPEAAGGPSVFLFPPKPKDTLMISRTPEVTCVVVDVSHEDPEVKFNWYVDGVEVHNAKTKPREEQYNSTYRVVSVLTVLHQDWLNGKEYKCKVSNKALAAPIEKTISKAKGQPREPQVYTLPPSREEMTKNQVSLTCLVKGFYPSDIAVEWESNGQPENNYKTTPPVLDSDGSFFLYSKLTVDKSRWQQGNVFSCSVMHEALHNHYTQKSLSLSPGK
light: DVVMTQSPPSLPVTLGQSASISCKSSESLLHSNANTYLYWFQQRPGQSPQLLIYRGSNLASGVPDRFSGSGSGTDFTLKISRVEAEDVGVYYCMQHLRNPYTFGQGTKVEIKRTVAAPSVFIFPPSDEQLKSGTASVVCLLNNFYPREAKVQWKVDNALQSGNSQESVTEQDSKDSTYSLSSTLTLSKADYEKHKVYACEVTHQGLSSPVTKSFNRGEC
notes: IgG1 L234A, L235A, P329A; also called top clone as IgG1

Experiment [1] addresses T1, His6-tagged cyIL-33 (Ser112-Ile270), …. In words: SPR, Biacore T200. On the technique in general: SPR reads the build-up and loss of mass on a sensor chip optically.
In experiment [2] the target is B2. Kind of experiment: SPR (Biacore) blocking: mAb premixed with 10 nM hIL-33, flowed over ST2-Fc on a CM5 chip; blocked partner ST2-Fc.
Protocol: (§1) Assessment was performed by SPR (Surface Plasmon Resonance) using Biacore 2000.
(§2) The association time was set for 2 min and the dissociation time for 5 min.
In experiment [3] the target is B2. Kind of experiment: SPR competition, antibody titrated against 10 nM hIL-33, over immobilised hST2-Fc.
Protocol: as §1, §2
In experiment [4] the target is T2, hST2-Fc protein from R&D Systems (cat …). In words: SPR, hST2-Fc immobilised on CM5, RU against hIL-33 concentration, 2 min association; 2 min association.
Protocol: (§3) Assessment was performed by SPR (Surface Plasmon Resonance) using Biacore 2000. The x-axis represents antibody concentration (nM), the y-axis represents the Response Units (RU) after correction by blank buffer.
(§4) The binding capacity as Response Units (RU) was recorded.
Experiment [5] shares this target. In words: SPR, hST2-Fc immobilised on CM5, RU against hIL-33 concentration, 1 min association; 1 min association.
Protocol: as §3, §4
The target of experiment [6] is T1, His6-tagged cyIL-33 (Ser112-Ile270), …. Kind of experiment: SPR, captured antibody, cyIL-33 analyte, 25 C, 1:1 fit.
Protocol: (§5) The polyclonal goat-anti-human IgG (Fc specific) antibodies were immobilized on a CM4 chip surface using a standard amine coupling method. […] After each cycle, the chip was regenerated with 10 mM glycine-HCl, pH 1.5. The results were analyzed using Biacore T200 evaluation software V3.2. Results were double referenced and fit to a 1:1 interaction model.
(§6) The kinetic binding data was obtained using SPR on a Biacore T200 equipment. […] The complex was allowed to associate for 3 min and dissociate for up to 1 hr. At the end of each cycle the CM4 chips were regenerated with 10 mM glycine pH1.5. The T200 Evaluation software V3.2 was used to align and double reference the data.
Experiment [7] deals with B2. In words: SPR.
Protocol: (§7) The kinetic binding data was obtained using SPR on a Biacore T200 equipment. […] The complex was allowed to associate for 3 min and dissociate for up to 1 hr. At the end of each cycle the CM4 chips were regenerated with 10 mM glycine pH1.5. The T200 Evaluation software V3.2 was used to align and double reference the data. The results were fit to a 1:1 binding model using the global data analysis option within the software.
Experiment [8] addresses B2. In words: SPR, captured antibody, hIL-33 analyte, 37 C, 1:1 fit.
Protocol: as §5, §6
For experiment [9], the target named is T1, His6-tagged cyIL-33 (Ser112-Ile270), …. Kind of experiment: SPR, cyIL-33 analyte.
Protocol: as §7

As for B1, in experiment [1], the binding result is recorded as “binds”. The IC50 is 1.01 nM in experiment [2] and 1.5 nM in [3].
Take B2: the EC50 was found to be 5.17 nM in experiment [4] and 10.8 nM in experiment [5].
Consider B3, for which, in experiment [6], the Kd came to 4.89 nM, the koff amounted to 0.00188 s⁻¹ and the kon is 384000 M⁻¹ s⁻¹. For the same molecule, in [7], the “fold increase of affinity against parental antibody QB11119” value is about 2 fold. Moreover, in [8], the Kd came out at 0.207 nM, the koff worked out at 0.000669 s⁻¹ and the kon amounted to 3.23e+06 M⁻¹ s⁻¹. The “fold improvement of affinity against parental antibody QB11119” value in [9] is about 3 fold.
